Source: PMC2861366 (Biochemistry, 2010)
Several values for one entry are separate records, joined by “and”; a condition that tells them apart may be missing. Identical values can stand only once. Like-named read-outs stand apart in the source and are kept apart here.

B4: E. coli PriA helicase (enzyme, UniProt P17888 1-732, looked up)
chain: MPVAHVALPVPLPRTFDYLLPEGMTVKAGCRVRVPFGKQQERIGIVVSVSDASELPLNELKAVVEVLDSEPVFTHSVWRLLLWAADYYHHPIGDVLFHALPILLRQGRPAANAPMWYWFATEQGQAVDLNSLKRSPKQQQALAALRQGKIWRDQVATLEFNDAALQALRKKGLCDLASETPEFSDWRTNYAVSGERLRLNTEQATAVGAIHSAADTFSAWLLAGVTGSGKTEVYLSVLENVLAQGKQALVMVPEIGLTPQTIARFRERFNAPVEVLHSGLNDSERLSAWLKAKNGEAAIVIGTRSALFTPFKNLGVIVIDEEHDSSYKQQEGWRYHARDLAVYRAHSEQIPIILGSATPALETLCNVQQKKYRLLRLTRRAGNARPAIQHVLDLKGQKVQAGLAPALITRMRQHLQADNQVILFLNRRGFAPALLCHDCGWIAECPRCDHYYTLHQAQHHLRCHHCDSQRPVPRQCPSCGSTHLVPVGLGTEQLEQTLAPLFPGVPISRIDRDTTSRKGALEQQLAEVHRGGARILIGTQMLAKGHHFPDVTLVALLDVDGALFSADFRSAERFAQLYTQVAGRAGRAGKQGEVVLQTHHPEHPLLQTLLYKGYDAFAEQALAERRMMQLPPWTSHVIVRAEDHNNQHAPLFLQQLRNLILSSPLADEKLWVLGPVPALAPKRGGRWRWQILLQHPSRVRLQHIINGTLALINTIPDSRKVKWVLDVDPIEG

How the values were obtained:
E. coli PriA helicase [1] = target: B4; assay: ITC
[2] = target: T1, χ subunit of DNA polymerase III holoenzyme (E. coli, UniProt P28905 1-147); assay: ITC
T1 sequence (P28905 whole entry): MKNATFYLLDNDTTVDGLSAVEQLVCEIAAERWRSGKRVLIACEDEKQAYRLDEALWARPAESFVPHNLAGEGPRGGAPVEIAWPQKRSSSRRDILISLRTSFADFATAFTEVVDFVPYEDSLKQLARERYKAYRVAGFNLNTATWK

E. coli PriA helicase [3] = target: B4; assay: ITC; remark: listed apart in the source
[4] = target: T1, χ subunit of DNA polymerase III …; assay: ITC; remark: listed apart in the source
E. coli PriA helicase [5] = target: B4; assay: ITC; remark: listed apart in the source
E. coli PriA helicase [6] = target: B4; assay: ITC; remark: listed apart in the source
[7] = target: T1, χ subunit of DNA polymerase III …; assay: ITC; remark: listed apart in the source
[8] = target: T1, χ subunit of DNA polymerase III …; assay: ITC; remark: listed apart in the source
E. coli PriA helicase [9] = target: B4; assay: ITC; remark: listed apart in the source
E. coli PriA helicase [10] = target: B4; assay: ITC; remark: listed apart in the source
[11] = target: E. coli single stranded DNA binding (SSB) protein (E. coli, UniProt P0AGE0 1-178); assay: AUC
Chain of E. coli single stranded DNA binding (SSB) protein (P0AGE0 whole entry): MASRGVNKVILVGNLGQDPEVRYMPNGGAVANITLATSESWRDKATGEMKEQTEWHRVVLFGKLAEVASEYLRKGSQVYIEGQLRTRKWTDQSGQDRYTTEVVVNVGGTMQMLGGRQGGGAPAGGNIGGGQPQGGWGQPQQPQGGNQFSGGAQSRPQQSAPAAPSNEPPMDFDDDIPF

B1: P15, synthetic peptide of the last 15 amino acids of the SSB C-terminus (peptide)
peptide: PSNEPPMDFDDDIPF
For B1, the Ka (E. coli PriA helicase [1]) was 360000 M⁻¹, the dH (E. coli PriA helicase [1]) was -14 ± 0.6 kcal/mol and the “stoichiometry N” value (E. coli PriA helicase [1]) was 0.92 ± 0.03. For the same binder, the Ka [2] was 1.5e+06 M⁻¹, the dH [2] was -9.5 ± 0.3 kcal/mol and the “stoichiometry N” value [2] was 0.91 ± 0.02. The Ka (E. coli PriA helicase [3]) was 2.7e+06 M⁻¹, the dH (E. coli PriA helicase [3]) was -20.7 ± 0.8 kcal/mol and the “stoichiometry N” value (E. coli PriA helicase [3]) was 0.9 ± 0.02. For the same binder, the Ka [4] was 800000 M⁻¹, the dH [4] was -7.7 ± 0.4 kcal/mol and the “stoichiometry N” value [4] was 0.88 ± 0.04. The Ka (E. coli PriA helicase [5]) was 1.6e+06 M⁻¹, the dH (E. coli PriA helicase [5]) was -7 ± 0.5 kcal/mol and the “stoichiometry N” value (E. coli PriA helicase [5]) was 1.03 ± 0.06.

B2: WP9, modified P9 peptide containing a Trp residue on the N terminal side (peptide)
peptide: WMDFDDDIPF
With B2 the Ka (E. coli PriA helicase [6]) was 225000 M⁻¹, the dH (E. coli PriA helicase [6]) was -13.7 ± 0.2 kcal/mol and the “stoichiometry N” value (E. coli PriA helicase [6]) was 1.01 ± 0.1. For the same binder, the Ka [7] was 300000 M⁻¹, the dH [7] was -9.2 ± 0.4 kcal/mol and the “stoichiometry N” value [7] was 0.96 ± 0.03. The Ka (E. coli PriA helicase [1]) was 230000 M⁻¹, the dH (E. coli PriA helicase [1]) was -13 ± 1.3 kcal/mol and the “stoichiometry N” value (E. coli PriA helicase [1]) was 1.1 ± 0.1. The Ka [2] was 1.2e+06 M⁻¹, the dH [2] was -8 ± 0.3 kcal/mol and the “stoichiometry N” value [2] was 1.02 ± 0.03. The Ka (E. coli PriA helicase [3]) was 1.6e+06 M⁻¹, the dH (E. coli PriA helicase [3]) was -14.5 ± 0.5 kcal/mol and the “stoichiometry N” value (E. coli PriA helicase [3]) was 0.95 ± 0.02. For the same binder, the Ka [8] was 1.6e+06 M⁻¹, the Ka (E. coli PriA helicase [9]) was 3.4e+06 M⁻¹ and the dH (E. coli PriA helicase [9]) was -17.6 ± 0.2 kcal/mol. For the same binder, the Ka (E. coli PriA helicase [10]) was 410000 M⁻¹ and 404000 M⁻¹, the dH (E. coli PriA helicase [10]) was -13.9 kcal/mol and -14.4 kcal/mol and the “stoichiometry N” value (E. coli PriA helicase [10]) was 0.91 ± 0.11.

B3: P9, synthetic peptide of the last 9 amino acids of the SSB C-terminus (peptide)
peptide: MDFDDDIPF
With B3 the Ka (E. coli PriA helicase [1]) was 180000 M⁻¹, the dH (E. coli PriA helicase [1]) was -17.3 ± 0.6 kcal/mol and the “stoichiometry N” value (E. coli PriA helicase [1]) was 0.81 ± 0.12. For the same binder, the Ka [2] was 1.6e+06 M⁻¹, the dH [2] was -7.9 ± 0.4 kcal/mol and the “stoichiometry N” value [2] was 1 ± 0.1. The Ka [4] was 800000 M⁻¹, the dH [4] was -8.2 ± 0.4 kcal/mol and the “stoichiometry N” value [4] was 0.92 ± 0.04. For the same binder, the Ka (E. coli PriA helicase [5]) was 2e+06 M⁻¹, the dH (E. coli PriA helicase [5]) was -6.7 ± 0.3 kcal/mol and the “stoichiometry N” value (E. coli PriA helicase [5]) was 0.89 ± 0.05.

In the case of B4, the “stoichiometry N” value [11] is reported as ≥ 3.
